# From patent US7057012B1, “PTH functional domain conjugate peptides, derivatives thereof and novel tethered ligand-receptor molecules” (The General Hospital Corporation, priority 1998, dated 2006)
# Where two headings read alike, the source gives them in different places.
# B1: hP1R-Tether(1–11): hP1R-Tether construct with the ligand chain extended to position 11, native leucine at 11 (protein)
# chain: EIQLMHNLGGGGEVFDRLGMIYTVGYSVSLASLTVAVLILAYFRRLHCTRNYIHMHLFLSFMLRAVSIFVKDAVLYSGATLDEAERLTEEELRAIAQAPPPPATAAAGYAGCRVAVTFFLYFLATNYYWILVEGLYLHSLIFMAFFSEKKYLWGFTVFGWGLPAVFVAVWVSVRATLANTGCWDLSSGNKKWIIQVPILASIVLNFILFINIVRVLATKLRETNAGRCDTRQQYRKLLKSTLVLMPLFGVHYIVFMATPYTEVSGTLWQVQMHYEMLFNSFQGFFVAIIYCFCNGEVQAEIKKSWSRWTLALDFKRKARSGSSSYSYGPMVSHTSVTNVGPRVGLGLPLSPRLLPTATTNGHPQLPGHAKPGTPALETLETTPPAMAAPKDDGFLNGSCSGLDEEASGPERPPALLQEEWETVM
# B2: hP1R-Tether(1–9): tethered human PTH-1 receptor: PTH(1–9) and four glycine spacer inserted between residues 23 and 182 of hP1R-delNT (protein)
# chain: MGTARIAPGLALLLCCPVLSSAYAVSEIQLMHGGGGEVFDRLGMIYTVGYSVSLASLTVAVLILAYFRRLHCTRNYIHMHLFLSFMLRAVSIFVKDAVLYSGATLDEAERLTEEELRAIAQAPPPPATAAAGYAGCRVAVTFFLYFLATNYYWILVEGLYLHSLIFMAFFSEKKYLWGFTVFGWGLPAVFVAVWVSVRATLANTGCWDLSSGNKKWIIQVPILASIVLNFILFINIVRVLATKLRETNAGRCDTRQQYRKLLKSTLVLMPLFGVHYIVFMATPYTEVSGTLWQVQMHYEMLFNSFQGFFVAIIYCFCNGEVQAEIKKSWSRWTLALDFKRKARSGSSSYSYGPMVSHTSVTNVGPRVGLGLPLSPRLLPTATTNGHPQLPGHAKPGTPALETLETTPPAMAAPKDDGFLNGSCSGLDEEASGPERPPALLQEEWETVM
# B3: hP1R-Tether(1–10): hP1R-Tether construct with the ligand chain extended to position 10 (protein)
# chain: EIQLMHNGGGGEVFDRLGMIYTVGYSVSLASLTVAVLILAYFRRLHCTRNYIHMHLFLSFMLRAVSIFVKDAVLYSGATLDEAERLTEEELRAIAQAPPPPATAAAGYAGCRVAVTFFLYFLATNYYWILVEGLYLHSLIFMAFFSEKKYLWGFTVFGWGLPAVFVAVWVSVRATLANTGCWDLSSGNKKWIIQVPILASIVLNFILFINIVRVLATKLRETNAGRCDTRQQYRKLLKSTLVLMPLFGVHYIVFMATPYTEVSGTLWQVQMHYEMLFNSFQGFFVAIIYCFCNGEVQAEIKKSWSRWTLALDFKRKARSGSSSYSYGPMVSHTSVTNVGPRVGLGLPLSPRLLPTATTNGHPQLPGHAKPGTPALETLETTPPAMAAPKDDGFLNGSCSGLDEEASGPERPPALLQEEWETVM
# B4: hP1R-[R^11]-Tether(1–11): Made from hTether-1 by inserting Asn10-Arg11 between His9 and first Gly of linker (protein)
# chain: MGTARIAPGLALLLCCPVLSSAYAVSEIQLMHNRGGGGEVFDRLGMIYTVGYSVSLASLTVAVLILAYFRRLHCTRNYIHMHLFLSFMLRAVSIFVKDAVLYSGATLDEAERLTEEELRAIAQAPPPPATAAAGYAGCRVAVTFFLYFLATNYYWILVEGLYLHSLIFMAFFSEKKYLWGFTVFGWGLPAVFVAVWVSVRATLANTGCWDLSSGNKKWIIQVPILASIVLNFILFINIVRVLATKLRETNAGRCDTRQQYRKLLKSTLVLMPLFGVHYIVFMATPYTEVSGTLWQVQMHYEMLFNSFQGFFVAIIYCFCNGEVQAEIKKSWSRWTLALDFKRKARSGSSSYSYGPMVSHTSVTNVGPRVGLGLPLSPRLLPTATTNGHPQLPGHAKPGTPALETLETTPPAMAAPKDDGFLNGSCSGLDEEASGPERPPALLQEEWETVM
# B5: hP1R-WT: intact human PTH-1 receptor (protein)
# chain: DADDVMTKEEQIFLLHRAQAQCEKRLKEVLQRPASIMESDKGWTSASTSGKPRKDKASGKLYPESEEDKEAPTGSRYRGRPCLPEWDHILCWPLGAPGEVVAVPCPDYIYDFNHKGHAYRRCDRNGSWELVPGHNRTWANYSECVKFLTNETREREVFDRLGMIYTVGYSVSLASLTVAVLILAYFRRLHCTRNYIHMHLFLSFMLRAVSIFVKDAVLYSGATLDEAERLTEEELRAIAQAPPPPATAAAGYAGCRVAVTFFLYFLATNYYWILVEGLYLHSLIFMAFFSEKKYLWGFTVFGWGLPAVFVAVWVSVRATLANTGCWDLSSGNKKWIIQVPILASIVLNFILFINIVRVLATKLRETNAGRCDTRQQYRKLLKSTLVLMPLFGVHYIVFMATPYTEVSGTLWQVQMHYEMLFNSFQGFFVAIIYCFCNGEVQAEIKKSWSRWTLALDFKRKARSGSSSYSYGPMVSHTSVTNVGPRVGLGLPLSPRLLPTATTNGHPQLPGHAKPGTPALETLETTPPAMAAPKDDGFLNGSCSGLDEEASGPERPPALLQEEWETVM
# What was measured:
# COS-7 cells [1] = assay: basal cAMP signaling of tethered ligand/receptor constructs in transiently transfected COS-7 cells; assay type: cell-based; conditions: for level of basal cAMP signaling: no agonist
# Procedure: (§1) Cell Culture: COS-7 cells were cultured at 37° C. in T-75 flasks ([…] in Dulbecco's modified Eagle's medium (DMEM) supplemented with fetal bovine serum (10%), penicillin G (20 units/ml), streptomycin sulfate (20 μg/ml) and amphotericin B (0.05 μg/ml) in a humidified atmosphere containing 5% CO2. Cells were sub-cultured in 24-well plates and, when confluent, were treated with fresh media and shifted to 33° C. for 12 to 24 h prior to the assay (Bergwitz, C., et al., J. Biol. Chem. 272:28861–28868 (1997); Abell, A., et al., J. Biol. Chem. 271:4518–4527 (1996)).
# PTH Receptor mutagenesis and COS-7 cell expression: The pcDNA-1-based plasmid encoding the intact HPTH-1 receptor (HK-WT in reference (Schipani, E., et al., Endocrinol. 132:2157–2165 (1993)) and herein called hP1R-WT) was used for studies in COS-7 cells. The truncated human PTH-1 receptor (hP1R-de1Nt) (FIG. 18) was constructed from the HK-WT plasmid by oligonucleotide-directed mutagenesis (Kunkel, T. A., Proc. Natl. Acad. Sci. USA 82:488–492 (1985)). This mutant receptor is deleted for residues 24 to 181 and, assuming that signal peptidase cleavage occurs between Ala^22 and Tyr^23 (Nielsen, H., et al., Protein Engineering 10:1–6 (1997)), is predicted to have Tyr^23 as the N-terminal residue joined directly to Glu^182 located at or near the boundary of the first transmembrane domain. A similarly truncated rat PTH receptor was described by us previously (Luck, M., et al., Molec. Endocrinol. 13:670–680 (1999)). The tethered human PTH-1 receptor [hP1R-Tether(1–9)] (hTether-1 in FIG. 17) is based on the hP1R-de1NT construct, and has PTH(1–9) and a four glycine spacer (AVSEIQLMHGGGG) (SEQ ID NO: 72) inserted between residues 23 and 182. Assuming that signal peptidase cleavage occurs between Ala^22 and Tyr^23, hP1R-Tether(1–9) is predicted to have Tyr^23 as the N-terminal residue joined directly to Ala of the ligand. Analogs of hP1R-Tether(1–9) were made in a similar fashion. Transient transfections of COS-7 cells were performed using DEAE-dextran and 200 ng of cesium chloride-purified plasmid DNA per well of a 24-well plate, as described previously (Bergwitz, C., et al., J. Biol. Chem. 272:28861–28868 (1997)).
# cAMP Stimulation: Stimulation of cells with peptide analogs was performed in 24-well plates. Cells were rinsed with 0.5 mL of binding buffer (50 mM Tris-HCl, 100 mM NaCl, 5 mM KCl, 2 mM CaCl2, 5% heat-inactivated horse serum, 0.5% fetal bovine serum, adjusted to pH 7.7 with HCl) and treated with 200 μL of cAMP assay buffer (Dulbecco's modified Eagle's medium containing 2 mM 3-isobutyl-1-methylxanthine, 1 mg/mL bovine serum albumin, 35 mM Hepes-NaOH, pH 7.4) and 100 μL of binding buffer containing varying amounts of peptide analog (final volume=300 μL). The medium was removed after incubation for 1 h at room temperature, and the cells were frozen (−80° C.), lysed with 0.5 mL 50 mM HCl, and refrozen (−80° C.). The cAMP content of the diluted lysate was determined by radioimmunoassay.
# COS-7 cells [2] = assay: agonist-induced cAMP signaling of receptor constructs in transiently transfected COS-7 cells; assay type: cell-based
# Procedure: as §1
# PTH Receptor mutagenesis and COS-7 cell expression: The pcDNA-1-based plasmid encoding the intact HPTH-1 receptor (HK-WT in reference (Schipani, E., et al., Endocrinol. 132:2157–2165 (1993)) and herein called hP1R-WT) was used for studies in COS-7 cells. The truncated human PTH-1 receptor (hP1R-de1Nt) (FIG. 18) was constructed from the HK-WT plasmid by oligonucleotide-directed mutagenesis (Kunkel, T. A., Proc. Natl. Acad. Sci. USA 82:488–492 (1985)). […]
# cAMP Stimulation: Stimulation of cells with peptide analogs was performed in 24-well plates. […] The cAMP content of the diluted lysate was determined by radioimmunoassay.
Molecule,level of basal cAMP signaling (COS-7 cells [1]),time of maximal agonist-induced signaling (COS-7 cells [2]) [min],also measured
B1,"moderate, but significant, improvements",–,–
B2,–,–,enhancement in the basal level of cAMP relative to hde1NT (COS-7 cells [1]; absence of any agonist peptide): ~5 fold
B3,"moderate, but significant, improvements",–,–
B4,increased still further,40,basal signaling compared with maximum agonist-stimulated response of hP1R-WT (COS-7 cells [1]): approached the maximum response attained by hP1R-WT; time of maximum level of basal cAMP signaling (COS-7 cells [1]): 40 min; increase in basal cAMP signaling (COS-7 cells [1]; comparator not restated): 20 fold; basal signaling compared with maximum agonist-stimulated response of hP1R-WT (COS-7 cells [1]; listed as hP1R-[R^11]Tether-(1–11)): approached the maximum agonist-stimulated response attained by hP1R-wildtype
B5,–,40,–
